Data on 2 molecules can be found in paper PMC4090178, “Structural and Biochemical Characterization of Human PR70 in Isolation and in Complex with the Scaffolding Subunit of Protein Phosphatase 2A” (PLoS ONE, 2014).

Where only a bound is given, the exact number is not on record here.

Holding throughout (conditions): both partners purified
One assay deals with T1, PR70 (25–575) (human, UniProt Q9Y5P8 25-575).
T1 construct: PR70 (B''β), regulatory B'' subunit of PP2A, human, product of PPP2R3B; also called B''/PR70; source: E. coli BL21(DE3), purified (IMAC, TEV cleavage, gel filtration); not shown: His tag, N-terminal, cleaved
T1 sequence (looked up): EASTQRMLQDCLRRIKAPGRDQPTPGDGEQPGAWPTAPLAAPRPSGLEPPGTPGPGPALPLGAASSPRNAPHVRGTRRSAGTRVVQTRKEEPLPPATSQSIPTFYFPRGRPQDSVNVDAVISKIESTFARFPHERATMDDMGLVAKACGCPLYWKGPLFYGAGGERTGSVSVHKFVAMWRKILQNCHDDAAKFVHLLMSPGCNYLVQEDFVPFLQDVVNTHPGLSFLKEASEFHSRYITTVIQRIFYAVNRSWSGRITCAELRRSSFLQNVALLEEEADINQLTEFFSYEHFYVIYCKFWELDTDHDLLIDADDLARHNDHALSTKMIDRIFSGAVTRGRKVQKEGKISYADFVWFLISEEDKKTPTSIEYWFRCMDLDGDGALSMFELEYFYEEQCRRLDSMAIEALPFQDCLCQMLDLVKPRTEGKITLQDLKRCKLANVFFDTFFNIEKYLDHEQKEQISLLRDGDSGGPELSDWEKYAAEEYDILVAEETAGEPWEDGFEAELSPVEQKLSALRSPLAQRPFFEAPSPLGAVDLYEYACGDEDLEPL
The assay can be described thus: ITC; B''-constructs at 20–40 µM in the cell titrated with 200–300 µM Aα or Aβ constructs; 15°C; 20 mM Tris pH 7.5, 200 mM NaCl, 2 mM CaCl2; 1:1 binding model. (In general: In ITC the heat of successive injections is recorded.)

The target in a further assay is T2, PR70 (105–575) (human, UniProt Q9Y5P8 105-575).
T2 construct: PR70 (B''β), regulatory B'' subunit of PP2A, human, product of PPP2R3B; source: E. coli BL21(DE3), purified (IMAC, TEV cleavage, gel filtration); not shown: His tag, N-terminal, cleaved
T2 sequence (looked up): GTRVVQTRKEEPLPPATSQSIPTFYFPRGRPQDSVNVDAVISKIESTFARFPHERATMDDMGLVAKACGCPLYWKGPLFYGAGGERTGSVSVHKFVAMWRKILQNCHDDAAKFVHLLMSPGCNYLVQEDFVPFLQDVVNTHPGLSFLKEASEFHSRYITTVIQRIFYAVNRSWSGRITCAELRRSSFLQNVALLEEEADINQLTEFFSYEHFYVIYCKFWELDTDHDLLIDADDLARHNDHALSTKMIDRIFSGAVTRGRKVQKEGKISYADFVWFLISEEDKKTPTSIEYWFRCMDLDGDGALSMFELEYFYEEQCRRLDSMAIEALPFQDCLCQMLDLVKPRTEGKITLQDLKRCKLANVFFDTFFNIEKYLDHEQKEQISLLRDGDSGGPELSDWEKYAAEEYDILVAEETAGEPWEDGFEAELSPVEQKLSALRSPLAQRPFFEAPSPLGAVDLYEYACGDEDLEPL
The description is as above.

Another assay has as its target T3, PR70 (130–504) (human, UniProt Q9Y5P8 130-504).
T3 construct: PR70 (B''β), regulatory B'' subunit of PP2A, human, product of PPP2R3B; residues 130–504; source: E. coli BL21(DE3), purified (IMAC, TEV cleavage, gel filtration); not shown: His tag, N-terminal, cleaved
T3 sequence (looked up): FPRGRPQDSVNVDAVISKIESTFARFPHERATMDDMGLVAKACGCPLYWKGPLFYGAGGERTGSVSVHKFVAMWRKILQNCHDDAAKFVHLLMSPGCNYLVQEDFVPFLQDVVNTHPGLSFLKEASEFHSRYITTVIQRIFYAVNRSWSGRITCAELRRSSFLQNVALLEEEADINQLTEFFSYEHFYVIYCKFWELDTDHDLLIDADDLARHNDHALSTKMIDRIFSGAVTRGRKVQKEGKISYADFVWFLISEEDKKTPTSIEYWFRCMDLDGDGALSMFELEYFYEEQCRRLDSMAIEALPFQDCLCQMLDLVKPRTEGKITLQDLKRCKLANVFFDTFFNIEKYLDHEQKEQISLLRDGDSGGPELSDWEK
The assay is described as above.

In assay [1] the target is T4, PR70 core fragment (residues 130–483) (human, UniProt Q9Y5P8 130-483).
T4 construct: PR70 (B''β), regulatory B'' subunit of PP2A, human, product of PPP2R3B; The crystal (PDB 4MEW) was of the selenomethionine-labelled protein alone; the model holds residues 134–481; also called PR70 core domain; source: E. coli BL21(DE3), purified (IMAC, TEV cleavage, gel filtration); not shown: His tag, N-terminal, cleaved
T4 sequence (looked up): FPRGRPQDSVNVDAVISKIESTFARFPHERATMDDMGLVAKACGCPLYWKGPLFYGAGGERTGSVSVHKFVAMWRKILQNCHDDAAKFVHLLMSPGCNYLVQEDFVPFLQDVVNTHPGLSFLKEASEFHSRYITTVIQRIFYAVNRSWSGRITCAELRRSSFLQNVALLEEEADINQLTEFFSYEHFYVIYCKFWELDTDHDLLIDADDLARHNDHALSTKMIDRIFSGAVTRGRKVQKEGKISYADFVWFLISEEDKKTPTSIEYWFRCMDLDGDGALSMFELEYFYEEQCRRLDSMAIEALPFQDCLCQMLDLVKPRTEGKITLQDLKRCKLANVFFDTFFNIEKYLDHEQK
Described as above.

In another assay the target is T5, A α (HEAT1–15) (UniProt P30153 1-589).
T5 construct: PP2A scaffolding subunit A, α isoform, product of PPP2R1A; HEAT repeats 1–15; calculated molecular weight 65.3 kD; also called full length A-subunit; scaffolding A subunit; source: E. coli BL21(DE3), purified (IMAC, TEV cleavage, gel filtration); not shown: His tag, N-terminal, cleaved
The assay can be described thus: SAXS; complex purified on Superdex 200 in 20 mM Tris pH 7.5, 20 mM NaCl, 2 mM CaCl2, 0.5 mM TCEP, 1% glycerol at 15°C just prior to SAXS; 1.5 mg/ml.

B1: A α (HEAT1–8) (domain or fragment, UniProt P30153 1-321, looked up)
chain: MAAADGDDSLYPIAVLIDELRNEDVQLRLNSIKKLSTIALALGVERTRSELLPFLTDTIYDEDEVLLALAEQLGTFTTLVGGPEYVHCLLPPLESLATVEETVVRDKAVESLRAISHEHSPSDLEAHFVPLVKRLAGGDWFTSRTSACGLFSVCYPRVSSAVKAELRQYFRNLCSDDTPMVRRAAASKLGEFAKVLELDNVKSEIIPMFSNLASDEQDSVRLLAVEACVNIAQLLPQEDLEALVMPTLRQAAEDKSWRVRYMVADKFTELQKAVGPEITKTDLVPAFQNLMKDCEAEVRAAASHKVKEFCENLSADCRENV
notes: PP2A scaffolding subunit A, α isoform, product of PPP2R1A; HEAT repeats 1–8 (C-terminal repeats deleted); also called construct spanning HEAT repeats 1–8; source: E. coli BL21(DE3), purified (IMAC, TEV cleavage, gel filtration); not shown: His tag, N-terminal, cleaved
As usually defined, the Kd is a measure of binding affinity in units of concentration. The low end stands for a tighter complex, the high end for a looser complex. Usually stoichiometry N stands for the number of molecules, sites or subunits per partner or assembly. As to B1, the Kd with PR70 (25–575) was 223 ± 21 nM; with PR70 (105–575), 158 ± 22 nM; with PR70 (130–504) it was > 100000 nM; in assay [1], > 100000 nM. In addition, the dH with PR70 (25–575) is -19.1 ± 0.4 kcal/mol; in the assay with PR70 (105–575) it was -20.3 ± 0.2 kcal/mol. Besides, the “stoichiometry N” value amounted to 0.93 ± 0.02 in the assay with PR70 (25–575) and 0.99 ± 0.01 in the assay with PR70 (105–575).

B2: PR70 (130–575) (domain or fragment, human, UniProt Q9Y5P8 130-575, looked up)
chain: FPRGRPQDSVNVDAVISKIESTFARFPHERATMDDMGLVAKACGCPLYWKGPLFYGAGGERTGSVSVHKFVAMWRKILQNCHDDAAKFVHLLMSPGCNYLVQEDFVPFLQDVVNTHPGLSFLKEASEFHSRYITTVIQRIFYAVNRSWSGRITCAELRRSSFLQNVALLEEEADINQLTEFFSYEHFYVIYCKFWELDTDHDLLIDADDLARHNDHALSTKMIDRIFSGAVTRGRKVQKEGKISYADFVWFLISEEDKKTPTSIEYWFRCMDLDGDGALSMFELEYFYEEQCRRLDSMAIEALPFQDCLCQMLDLVKPRTEGKITLQDLKRCKLANVFFDTFFNIEKYLDHEQKEQISLLRDGDSGGPELSDWEKYAAEEYDILVAEETAGEPWEDGFEAELSPVEQKLSALRSPLAQRPFFEAPSPLGAVDLYEYACGDEDLEPL
notes: PR70 (B''β), regulatory B'' subunit of PP2A, human, product of PPP2R3B; Used only for SAXS of the complex with the A-subunit; source: E. coli BL21(DE3), purified (IMAC, TEV cleavage, gel filtration); not shown: His tag, N-terminal, cleaved
On to B2, for which the binding result with A α (HEAT1–15) is “binds”.
